Measured values from article PMC3594540 (Nature structural & molecular biology, 2013).

T1: murine Gαq (residues 7–359), biotinylated for bead binding (murine, UniProt P21279 7-359)
T1 sequence: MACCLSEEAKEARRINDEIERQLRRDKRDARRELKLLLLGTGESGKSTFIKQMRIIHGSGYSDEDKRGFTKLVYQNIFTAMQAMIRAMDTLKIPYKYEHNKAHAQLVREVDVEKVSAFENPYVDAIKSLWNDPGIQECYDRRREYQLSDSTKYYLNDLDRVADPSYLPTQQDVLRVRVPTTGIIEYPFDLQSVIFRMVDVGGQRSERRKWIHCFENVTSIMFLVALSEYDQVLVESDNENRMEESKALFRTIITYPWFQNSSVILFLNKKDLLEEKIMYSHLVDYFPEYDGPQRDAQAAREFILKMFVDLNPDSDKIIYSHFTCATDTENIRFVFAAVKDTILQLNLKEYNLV

B1: Gαq-ΔN (domain or fragment)
chain: RRELKLLLLGTGESGKSTFIKQMRIIHGSGYSDEDKRGFTKLVYQNIFTAMQAMIRAMDTLKIPYKYEHNKAHAQLVREVDVEKVSAFENPYVDAIKSLWNDPGIQECYDRRREYQLSDSTKYYLNDLDRVADPSYLPTQQDVLRVRVPTTGIIEYPFDLQSVIFRMVDVGGQRSERRKWIHCFENVTSIMFLVALSEYDQVLVESDNENRMEESKALFRTIITYPWFQNSSVILFLNKKDLLEEKIMYSHLVDYFPEYDGPQRDAQAAREFILKMFVDLNPDSDKIIYSHFTCATDTENIRFVFAAVKDTILQLNLKEYNLV
modifications: biotinylated (b-Gαq, in the FCPIA)
B2: human PLCβ3 (residues 10–1234) (enzyme)
chain: ALQLEPPTVVETLRRGSKFIKWDEETSSRNLVTLRVDPNGFFLYWTGPNMEVDTLDISSIRDTRTGRYARLPKDPKIREVLGFGGPDARLEEKLMTVVSGPDPVNTVFLNFMAVQDDTAKVWSEELFKLAMNILAQNASRNTFLRKAYTKLKLQVNQDGRIPVKNILKMFSADKKRVETALESCGLKFNRSESIRPDEFSLEIFERFLNKLCLRPDIDKILLEIGAKGKPYLTLEQLMDFINQKQRDPRLNEVLYPPLRPSQARLLIEKYEPNQQFLERDQMSMEGFSRYLGGEENGILPLEALDLSTDMTQPLSAYFINSSHNTYLTAGQLAGTSSVEMYRQALLWGCRCVELDVWKGRPPEEEPFITHGFTMTTEVPLRDVLEAIAETAFKTSPYPVILSFENHVDSAKQQAKMAEYCRSIFGDALLIEPLDKYPLAPGVPLPSPQDLMGRILVKNKKRHRPSAGGPDSAGRKRPLEQSNSALSESSAATEPSSPQLGSPSSDSCPGLSNGEEVGLEKPSLEPQKSLGDEGLNRGPYVLGPADREDEEEDEEEEEQTDPKKPTTDEGTASSEVNATEEMSTLVNYIEPVKFKSFEAARKRNKCFEMSSFVETKAMEQLTKSPMEFVEYNKQQLSRIYPKGTRVDSSNYMPQLFWNVGCQLVALNFQTLDVAMQLNAGVFEYNGRSGYLLKPEFMRRPDKSFDPFTEVIVDGIVANALRVKVISGQFLSDRKVGIYVEVDMFGLPVDTRRKYRTRTSQGNSFNPVWDEEPFDFPKVVLPTLASLRIAAFEEGGKFVGHRILPVSAIRSGYHYVCLRNEANQPLCLPALLIYTEASDYIPDDHQDYAEALINPIKHVSLMDQRARQLAALIGESEAQAGQETCQDTQSQQLGSQPSSNPTPSPLDASPRRPPGPTTSPASTSLSSPGQRDDLIASILSEVAPTPLDELRGHKALVKLRSRQERDLRELRKKHQRKAVTLTRRLLDGLAQAQAEGRCRLRPGALGGAADVEDTKEGEDEAKRYQEFQNRQVQSLLELREAQVDAEAQRRLEHLRQALQRLREVVLDANTTQFKRLKEMNEREKKELQKILDRKRHNSISEAKMRDKHKKEAELTEINRRHITESVNSIRRLEEAQKQRHDRLVAGQQQVLQQLAEEEPKLLAQLAQECQEQRARLPQEIRRSLLGEMPEGLGDGPLVACASNGHAPGSSGHLSGADSESQEENTQL
B3: TEV-cleaved murine Gαq (residues 7–359) (natural protein)
chain: T1 sequence
modifications: at least a fraction of the purified Gαq was palmitoylated (Cys9 and Cys10)

Key:
[1] = biological target: B2; assay: cell-based or functional assay
[2] = biological target: T1, murine Gαq (residues 7–359), …; assay: flow cytometry protein interaction assay
[3] = biological target: B2; assay: crystal structure

B1
EC50 of Gαq-stimulated PIP2 hydrolysis ([3H]-IP3 release from liposomes) [1]: 39 nM | Max specific activity of Gαq-stimulated PIP2 hydrolysis (liposomes) [1]: 1600 nmol IP3/min/nmol PLCβ3

B2
Ki [2]: 220 nM

B3
binding result [3]: binds
